Source: publication PMC7581431

B1: Nkd1-BirA* [murine] / DVL2 (endogenous) [human (endogenous in Flp-In-T-REx-293)] (parent)
chain 1: MGKLHSKPAAVCKRRESPEGDSFAVSAAWARKGIEEWIGRQRCPGSVSGPRQLRLAGTVGRGTRELVGDTSREALGEEDEDDFPLEVALPPEKIDSLGSGDEKRMERLSEPGQASKKQLKFEELQCDVSVEEDSRQEWTFTLYDFDNNGKVTREDITSLLHTIYEVVDSSVNHSPTSSKTLRVKLTVAPDGSQSKRSVLFNHTDLQSTRPRADTKPAEELRGWEKKQRAPLRFQGDSHLEQPDCYHHCVDENIERRNHYLDLAGIENYTSQFGPGSPSVAQKSELPPRISNPTRSRSHEPEAAHIPHRRPQGVDPGSFHLLDTPFAKASELQQRLRGTQDGSKHFVRSPKAQGKNMGMGHGARGARSKPPLVPTTHTVSPSAHLATSPALLPTLAPLGHKKHKHRAKESQASCRGLQGPLAAGGSTVMGREQVRELPAVVVYESQAGQAVQRHEHHHHHEHHHHYHHFYQP
chain 2: MAGSSTGGGGVGETKVIYHLDEEETPYLVKIPVPAERITLGDFKSVLQRPAGAKYFFKSMDQDFGVVKEEISDDNARLPCFNGRVVSWLVSSDNPQPEMAPPVHEPRAELAPPAPPLPPLPPERTSGIGDSRPPSFHPNVSSSHENLEPETETESVVSLRRERPRRRDSSEHGAGGHRTGGPSRLERHLAGYESSSTLMTSELESTSLGDSDEEDTMSRFSSSTEQSSASRLLKRHRRRRKQRPPRLERTSSFSSVTDSTMSLNIITVTLNMEKYNFLGISIVGQSNERGDGGIYIGSIMKGGAVAADGRIEPGDMLLQVNDMNFENMSNDDAVRVLRDIVHKPGPIVLTVAKCWDPSPQAYFTLPRNEPIQPIDPAAWVSHSAALTGTFPAYPGSSSMSTITSGSSLPDGCEGRGLSVHTDMASVTKAMAAPESGLEVRDRMWLKITIPNAFLGSDVVDWLYHHVEGFPERREARKYASGLLKAGLIRHTVNKITFSEQCYYVFGDLSGGCESYLVNLSLNDNDGSSGASDQDTLAPLPGATPWPLLPTFSYQYPAPHPYSPQPPPYHELSSYTYGGGSASSQHSEGSRSSGSTRSDGGAGRTGRPEERAPESKSGSGSESEPSSRGGSLRRGGEASGTSDGGPPPSRGSTGGAPNLRAHPGLHPYGPPPGMALPYNPMMVVMMPPPPPPVPPAVQPPGAPPVRDLGSVPPELTASRQSFHMAMGNPSEFFVDVM
B2: Nkd1-BirA* [murine] / DVL3 [human (endogenous in Flp-In-T-REx-293)] (parent)
chain 1: B1 chain 1
chain 2: MGETKIIYHLDGQETPYLVKLPLPAERVTLADFKGVLQRPSYKFFFKSMDDDFGVVKEEISDDNAKLPCFNGRVVSWLVSAEGSHPDPAPFCADNPSELPPPMERTGGIGDSRPPSFHPHAGGGSQENLDNDTETDSLVSAQRERPRRRDGPEHATRLNGTAKGERRREPGGYDSSSTLMSSELETTSFFDSDEDDSTSRFSSSTEQSSASRLMRRHKRRRRKQKVSRIERSSSFSSITDSTMSLNIITVTLNMEKYNFLGISIVGQSNERGDGGIYIGSIMKGGAVAADGRIEPGDMLLQVNEINFENMSNDDAVRVLREIVHKPGPITLTVAKCWDPSPRGCFTLPRSEPIRPIDPAAWVSHTAAMTGTFPAYGMSPSLSTITSTSSSITSSIPDTERLDDFHLSIHSDMAAIVKAMASPESGLEVRDRMWLKITIPNAFIGSDVVDWLYHNVEGFTDRREARKYASNLLKAGFIRHTVNKITFSEQCYYIFGDLCGNMANLSLHDHDGSSGASDQDTLAPLPHPGAAPWPMAFPYQYPPPPHPYNPHPGFPELGYSYGGGSASSQHSEGSRSSGSNRSGSDRRKEKDPKAGDSKSGGSGSESDHTTRSSLRGPRERAPSERSGPAASEHSHRSHHSLASSLRSHHTHPSYGPPGVPPLYGPPMLMMPPPPAAMGPPGAPPGRDLASVPPELTASRQSFRMAMGNPSEFFVDVM
B3: Nkd1-BirA* [murine] / VANGL1 [human (endogenous in Flp-In-T-REx-293)] (parent)
chain 1: B1 chain 1
chain 2: MDTESTYSGYSYYSSHSKKSHRQGERTRERHKSPRNKDGRGSEKSVTIQPPTGEPLLGNDSTRTEEVQDDNWGETTTAITGTSEHSISQEDIARISKDMEDSVGLDCKRYLGLTVASFLGLLVFLTPIAFILLPPILWRDELEPCGTICEGLFISMAFKLLILLIGTWALFFRKRRADMPRVFVFRALLLVLIFLFVVSYWLFYGVRILDSRDRNYQGIVQYAVSLVDALLFIHYLAIVLLELRQLQPMFTLQVVRSTDGESRFYSLGHLSIQRAALVVLENYYKDFTIYNPNLLTASKFRAAKHMAGLKVYNVDGPSNNATGQSRAMIAAAARRRDSSHNELYYEEAEHERRVKKRKARLVVAVEEAFIHIQRLQAEEQQKAPGEVMDPREAAQAIFPSMARALQKYLRITRQQNYHSMESILQHLAFCITNGMTPKAFLERYLSAGPTLQYDKDRWLSTQWRLVSDEAVTNGLRDGIVFVLKCLDFSLVVNVKKIPFIILSEEFIDPKSHKFVLRLQSETSV

Variants of: B1
Assay: BioID proximity labeling (mass spectrometry)
Details: with DVL2 (endogenous) [human (endogenous in Flp-In-T-REx-293)]; +Wnt3a

| Variant | response (unweighted spectral counts) |
| --- | --- |
| chain 1 MAKLHSKPAAVCKRRESPEGDSFAVSAAWARKGIEEWIGRQRCPGSVSGPRQLRLAGTVGRGTRELVGDTSREALGEEDEDDFPLEVALPPEKIDSLGSGDEKRMERLSEPGQASKKQLKFEELQCDVSVEEDSRQEWTFTLYDFDNNGKVTREDITSLLHTIYEVVDSSVNHSPTSSKTLRVKLTVAPDGSQSKRSVLFNHTDLQSTRPRADTKPAEELRGWEKKQRAPLRFQGDSHLEQPDCYHHCVDENIERRNHYLDLAGIENYTSQFGPGSPSVAQKSELPPRISNPTRSRSHEPEAAHIPHRRPQGVDPGSFHLLDTPFAKASELQQRLRGTQDGSKHFVRSPKAQGKNMGMGHGARGARSKPPLVPTTHTVSPSAHLATSPALLPTLAPLGHKKHKHRAKESQASCRGLQGPLAAGGSTVMGREQVRELPAVVVYESQAGQAVQRHEHHHHHEHHHHYHHFYQP [chain 1 G2A] | 303 |

Variants of: B2
Assay: BioID proximity labeling (mass spectrometry)
Details: with DVL3 [human (endogenous in Flp-In-T-REx-293)]; +Wnt3a

| Variant | response (unweighted spectral counts) |
| --- | --- |
| chain 1 MAKLHSKPAAVCKRRESPEGDSFAVSAAWARKGIEEWIGRQRCPGSVSGPRQLRLAGTVGRGTRELVGDTSREALGEEDEDDFPLEVALPPEKIDSLGSGDEKRMERLSEPGQASKKQLKFEELQCDVSVEEDSRQEWTFTLYDFDNNGKVTREDITSLLHTIYEVVDSSVNHSPTSSKTLRVKLTVAPDGSQSKRSVLFNHTDLQSTRPRADTKPAEELRGWEKKQRAPLRFQGDSHLEQPDCYHHCVDENIERRNHYLDLAGIENYTSQFGPGSPSVAQKSELPPRISNPTRSRSHEPEAAHIPHRRPQGVDPGSFHLLDTPFAKASELQQRLRGTQDGSKHFVRSPKAQGKNMGMGHGARGARSKPPLVPTTHTVSPSAHLATSPALLPTLAPLGHKKHKHRAKESQASCRGLQGPLAAGGSTVMGREQVRELPAVVVYESQAGQAVQRHEHHHHHEHHHHYHHFYQP [chain 1 G2A] | 240 |

Variants of: B3
Assay: BioID proximity labeling (mass spectrometry)
Details: with VANGL1 [human (endogenous in Flp-In-T-REx-293)]; +Wnt3a

| Variant | response (unweighted spectral counts) |
| --- | --- |
| chain 1 MAKLHSKPAAVCKRRESPEGDSFAVSAAWARKGIEEWIGRQRCPGSVSGPRQLRLAGTVGRGTRELVGDTSREALGEEDEDDFPLEVALPPEKIDSLGSGDEKRMERLSEPGQASKKQLKFEELQCDVSVEEDSRQEWTFTLYDFDNNGKVTREDITSLLHTIYEVVDSSVNHSPTSSKTLRVKLTVAPDGSQSKRSVLFNHTDLQSTRPRADTKPAEELRGWEKKQRAPLRFQGDSHLEQPDCYHHCVDENIERRNHYLDLAGIENYTSQFGPGSPSVAQKSELPPRISNPTRSRSHEPEAAHIPHRRPQGVDPGSFHLLDTPFAKASELQQRLRGTQDGSKHFVRSPKAQGKNMGMGHGARGARSKPPLVPTTHTVSPSAHLATSPALLPTLAPLGHKKHKHRAKESQASCRGLQGPLAAGGSTVMGREQVRELPAVVVYESQAGQAVQRHEHHHHHEHHHHYHHFYQP [chain 1 G2A] | 7 |
